First the molecules themselves.
B1: C1.2 IgG4 antibody (antibody, V domains shown)
VH: EVQLLESGGGLVQPGGSLRLSCAASGFTFSLYWMGWVRQAPGKGLEWVSSISSSGGVTPYADSVKGRFTISRDNSKNTLYLQMNSLRAEDTAVYYCAMLGELGWFDPWGQGTLVTVSS
VL: DIQMTQSPSALSASVGDRVTITCRASQGISSYLNWYQQKPGKAPKLLIYYASNLQNGIPSRFSGSGSGTDFTLTISSLQPEDFATYHCQQSYSTPLTFGGGTNVEIR
notes: human IgG4 format; also called C1.2 Ab
B2: C1.2G-54 (antibody, human IgG4, V domains shown)
VH: B1 VH with M98K, W104M, D106L, P107E
VL: B1 VL with A10S, I58V, H87Y, Y92M, S93W, T94M, L96M, T97G, N103K, R107K
notes: also called antibody 54
B3: C1.2G-987 (antibody, human IgG4, V domains shown)
VH: B1 VH with M98K, W104Q, F105S, D106S, P107A
VL: B1 VL with A10S, I58V, H87Y, Y92I, S93Q, T94Y, L96Q, T97M, N103K, R107K
notes: also called antibody 987
B4: C1.2G-986 (antibody, human IgG4, V domains shown)
VH: B1 VH with M98K, W104F, D106Q, P107E
VL: B1 VL with A10S, I58V, H87Y, S93A, T94Y, L96Q, T97Q, N103K, R107K
notes: also called antibody 986
B5: C1.2G-1002 (antibody, human IgG4, V domains shown)
VH: B1 VH with M98K, W104M, F105Y, D106M, P107N
VL: B1 VL with A10S, I58V, H87Y, Y92W, S93T, T94Y, P95G, L96Q, N103K, R107K
notes: also called antibody 1002
B6: C1.2G-1000 (antibody, human IgG4, V domains shown)
VH: B1 VH with M98K, W104Q, F105M, D106M, P107Y
VL: DIQMTQSPSSLSASVGDRVTITCRASQGISSYLNWYQQKPGKAPKLLIYYASNLQNGVPSRFSGSGSGTDFTLTISSLQPEDFATYYCQQSWMYAHMFGGGTKVEIK
notes: also called antibody 1000
B7: C1.2G-969 (antibody, human IgG4, V domains shown)
VH: B1 VH with M98K, W104Q, F105Y, D106Q, P107F
VL: B6 VL with W92F, M93Q, H96Q, M97H
notes: also called antibody 969
B8: C1.2G-967 (antibody, human IgG4, V domains shown)
VH: B1 VH with M98K, W104M, F105Y, P107L
VL: B6 VL with M93A, A95G, H96L, M97S
notes: also called antibody 967
B9: C1.2G-994 (antibody, human IgG4, V domains shown)
VH: B1 VH with M98K, W104Q, D106M, P107D
VL: B6 VL with W92L, M93E, A95P, H96Q
notes: also called antibody 994
B10: C1.2G-1003 (antibody, human IgG4, V domains shown)
VH: B1 VH with M98K, W104S, F105G, D106S, P107T
VL: B6 VL with M93H, A95P, H96L, M97T
notes: also called antibody 1003
B11: C1.2G-989 (antibody, human IgG4, V domains shown)
VH: B1 VH with M98K, W104Q, F105Y, D106M, P107F
VL: B6 VL with W92F, M93Y, A95P, H96F, M97Y
notes: also called antibody 989
B12: C1.2G-95 (antibody, human IgG4, V domains shown)
VH: B1 VH with M98K
VL: B6 VL with M93E, A95P, H96L, M97V
notes: HCDR3 wt (VH of C1.2G); also called antibody 95
B13: C1.2G-802 (antibody, human IgG4, V domains shown)
VH: B1 VH with M98K
VL: B6 VL with Q89H, Q90F, W92M, M93Q, A95P, H96L, M97T
notes: HCDR3 wt (VH of C1.2G); also called antibody 802
B14: C1.2G-83 (antibody, human IgG4, V domains shown)
VH: B1 VH with M98K
VL: B6 VL with H96L, M97F
notes: HCDR3 wt (VH of C1.2G); also called antibody 83
B15: C1.2G-79 (antibody, human IgG4, V domains shown)
VH: B1 VH with M98K
VL: B6 VL with Q90V, M93E, A95P, H96L, M97T
notes: HCDR3 wt (VH of C1.2G); also called antibody 79
B16: C1.2G-77 (antibody, human IgG4, V domains shown)
VH: B1 VH with M98K
VL: B6 VL with Q89E, S91G, M93N, A95P, H96L, M97T
notes: HCDR3 wt (VH of C1.2G); also called antibody 77
B17: C1.2G-97 (antibody, human IgG4, V domains shown)
VH: B1 VH with M98K
VL: B6 VL with W92F, A95P, H96L, M97Y
notes: HCDR3 wt (VH of C1.2G); also called antibody 97

The text below walks through data of US20160031998A1 (CSL, published 2016).

Numbering of substitutions follows the chain as printed.

One assay deals with T1, human G-CSFR expressed on cells (Homo sapiens, UniProt Q99062 25-836).
T1 sequence: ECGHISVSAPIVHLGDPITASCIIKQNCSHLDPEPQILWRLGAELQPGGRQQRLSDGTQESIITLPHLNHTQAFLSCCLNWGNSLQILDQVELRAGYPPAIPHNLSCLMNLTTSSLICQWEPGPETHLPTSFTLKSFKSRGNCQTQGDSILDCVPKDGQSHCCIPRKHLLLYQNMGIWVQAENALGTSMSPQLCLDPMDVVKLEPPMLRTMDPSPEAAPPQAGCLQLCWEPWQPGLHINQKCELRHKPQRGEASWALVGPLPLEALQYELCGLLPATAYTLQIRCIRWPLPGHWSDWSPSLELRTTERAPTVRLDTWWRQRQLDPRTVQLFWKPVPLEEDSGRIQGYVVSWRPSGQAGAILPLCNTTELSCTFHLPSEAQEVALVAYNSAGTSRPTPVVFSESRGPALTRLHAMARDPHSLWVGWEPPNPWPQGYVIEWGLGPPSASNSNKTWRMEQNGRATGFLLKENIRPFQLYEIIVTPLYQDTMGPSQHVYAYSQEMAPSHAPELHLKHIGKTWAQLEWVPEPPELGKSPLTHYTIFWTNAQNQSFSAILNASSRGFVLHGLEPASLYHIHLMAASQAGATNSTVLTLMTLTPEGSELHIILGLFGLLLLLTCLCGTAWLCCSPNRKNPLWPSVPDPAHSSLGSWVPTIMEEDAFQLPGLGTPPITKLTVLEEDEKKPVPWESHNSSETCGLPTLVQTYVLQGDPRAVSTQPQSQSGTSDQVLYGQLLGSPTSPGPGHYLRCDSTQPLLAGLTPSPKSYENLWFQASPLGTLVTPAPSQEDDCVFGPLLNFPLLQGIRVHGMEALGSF
The assay is described as follows: cell-based or functional assay.
Consider B1, for which the “IC50, inhibition of CFU-G formation by CD34+ bone marrow cells in the presence of G-CSF” value turned out to be 0.016 nM and the “IC50, inhibition of G-CSF-mediated proliferation of BaF3 cells expressing hG-CSFR” value came out at 0.5 nM.

The next assay has as its target T1, human G-CSFR expressed on cells. Briefly: cell-based or functional assay. This is another data set of the same source.
Take B2: the “IC50 (nM), inhibition of G-CSF-mediated proliferation of BaF3 cells” value (from here on “IC50 (nM), inhibition”) is 0.5 nM.

As for B3, the “IC50 (nM), inhibition” value came out at 0.88 nM.

In the case of B4, the “IC50 (nM), inhibition” value worked out at 0.28 nM.

As for B5, the “IC50 (nM), inhibition” value turned out to be 0.18 nM.

For the molecule B6, the “IC50 (nM), inhibition” value stood at 0.34 nM.

With B7, the “IC50 (nM), inhibition” value is 0.41 nM.

Consider B8, for which the “IC50 (nM), inhibition” value was 0.29 nM.

Consider B9, for which the “IC50 (nM), inhibition” value stood at 0.49 nM.

Take B10: the “IC50 (nM), inhibition” value came to 0.26 nM.

Turning to B11, the “IC50 (nM), inhibition” value was found to be 0.34 nM.

B12: the “IC50 (nM), inhibition” value amounted to 0.26 nM.

On to B13, for which the “IC50 (nM), inhibition” value stood at 0.26 nM.

With B14, the “IC50 (nM), inhibition” value stood at 0.21 nM.

Take B15: the “IC50 (nM), inhibition” value was 0.31 nM.

Take B16: the “IC50 (nM), inhibition” value worked out at 0.23 nM.

On to B17, for which the “IC50 (nM), inhibition” value worked out at 0.21 nM.

Another assay has as its target T2, soluble hG-CSFR: amino acids 25-335 of Homo sapiens G-CSFR with mutations C78A, C163S and C228S and a … (Homo sapiens, UniProt Q99062 25-335).
T2 chain: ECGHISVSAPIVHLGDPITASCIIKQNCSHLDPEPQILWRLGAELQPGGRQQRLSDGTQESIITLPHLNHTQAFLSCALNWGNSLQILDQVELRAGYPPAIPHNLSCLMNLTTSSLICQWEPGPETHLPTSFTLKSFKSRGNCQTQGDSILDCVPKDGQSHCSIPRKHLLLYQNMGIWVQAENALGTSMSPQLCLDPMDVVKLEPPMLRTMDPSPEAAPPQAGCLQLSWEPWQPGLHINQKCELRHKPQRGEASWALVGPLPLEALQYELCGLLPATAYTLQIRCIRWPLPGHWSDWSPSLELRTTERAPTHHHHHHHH
Briefly: SPR (Biacore 2000), receptor immobilised on CM5 chip, IgG4 in solution. The procedure:
(§1) Duplicate biosensor analysis of the antibodies c1.2 and 5D11 in IgG4 format were performed using a Biacore 2000 with a doubling dilution of the antibodies (312 nM to 2.4 nM in 0.1 mg/ml BSA) at a flow rate of 30 ul/min. Binding (100 μl) was monitored to respective flow cells containing control immobilized blank, immobilized cyno-G-CSFR-Fc, immobilized hG-CSFR-Fc and immobilized hG-CSFR. Receptor proteins (20 ug per ml in 20 mM Sodium Acetate pH 4.5) were previously immobilized to a CM5 chip using a NHS/EDC coupling kit as per the manufacturer's instructions (Biacore GE, Sweden). Target immobilization values were set at 700, 700 and 500 resonance units for cyno-G-CSFR-Fc, hG-CSFR-Fc and hG-CSFR, respectively. Chip immobilization was quenched with 50 mM ethanolamine pH 8.0. Dissociation of surface binding was monitored for 1000 seconds prior to desorption of the remaining complex using 50 mM Phosphoric acid. Reference binding was then subtracted from the control channel and kinetics generated using biaevaluation software on the Biacore 2000.
On the technique in general: Surface plasmon resonance follows binding to a sensor surface in real time, without labels.
The Kd is the constant that tells how readily two partners part at equilibrium. Consider B1, for which the affinity, expressed as Kd, was 0.027 nM.

For another assay, the target named is T3, hG-CSFR-Fc: polypeptide of SEQ ID NO: 1 in which the C-terminal polyhistidine tag is replaced with an Fc … (Homo sapiens, UniProt Q99062 25-335).
T3 construct: the Fc is not specified; also called human G-CSFR-Fc; hG-CSFR-Fc fusion
T3 chain: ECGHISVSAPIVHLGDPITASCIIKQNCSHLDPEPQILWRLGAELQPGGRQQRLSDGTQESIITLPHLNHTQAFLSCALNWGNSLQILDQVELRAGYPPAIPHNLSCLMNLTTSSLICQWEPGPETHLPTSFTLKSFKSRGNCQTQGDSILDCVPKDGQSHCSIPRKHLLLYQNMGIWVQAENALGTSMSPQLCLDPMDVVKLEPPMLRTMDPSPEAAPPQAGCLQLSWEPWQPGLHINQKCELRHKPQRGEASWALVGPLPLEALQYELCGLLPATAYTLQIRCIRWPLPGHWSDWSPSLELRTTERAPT
Described as above. As to the method: as §1
In turn, B1 yielded a Kd of 0.077 nM.

In another assay the target is T4, cynoG-CSFR-Fc: corresponding segment of cynomolgus monkey G-CSFR with an Fc sequence attached to its … (Macaca fascicularis, UniProt Q99062 25-335 (human entry)).
T4 construct: the Fc is not specified; also called cynomolgus monkey G-CSFR-Fc
T4 chain: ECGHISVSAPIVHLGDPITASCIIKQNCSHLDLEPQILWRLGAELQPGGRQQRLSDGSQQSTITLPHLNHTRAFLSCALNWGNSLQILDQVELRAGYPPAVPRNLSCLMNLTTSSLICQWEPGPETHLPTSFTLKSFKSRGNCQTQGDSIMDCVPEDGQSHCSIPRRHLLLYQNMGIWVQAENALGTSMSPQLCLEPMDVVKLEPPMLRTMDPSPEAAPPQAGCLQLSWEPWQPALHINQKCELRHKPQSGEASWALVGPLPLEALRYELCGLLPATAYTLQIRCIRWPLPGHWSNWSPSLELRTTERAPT
The assay is described as above. The procedure:
as §1
B1: binding was characterised by a dissociation constant (Kd) of 0.054 nM.

The target of the next assay is T2, soluble hG-CSFR: amino acids 25-335 of …. Briefly: SPR (Biacore), mAb captured by anti-human IgG, soluble hG-CSFR injected. As to the method:
Soluble hG-CSFR was injected for 5 minutes and dissociation was monitored for 30 minutes. Responses from a reference flow cell (in which mAb was not captured, but otherwise treated identically), were subtracted. The responses from a blank injection were then subtracted from the resultant sensorgrams.
The final corrected responses were fitted using non-linear regression to a model describing 1:1 kinetics, including a term for mass transport limitation. The Rmax value was fitted locally, to account for slight deviations in the level of mAb captured. Association rate (ka), dissociation rate (kd) and equilibrium dissociation constant (KD) were determined.
B2: the Kd turned out to be 0.11 nM.

B3 came in with a Kd of 0.0446 nM.

In the case of B4, the Kd amounted to 0.0911 nM.

In the case of B5, binding was characterised by a dissociation constant (Kd) of 0.167 nM.

As to B6, the Kd was 0.182 nM.

The molecule B7 came in with an equilibrium dissociation constant (Kd) of 0.181 nM.

On to B8, for which the dissociation constant (Kd) was determined as 0.134 nM.

Turning to B9, binding was put at a Kd of 0.17 nM.

As to B10, the Kd was found to be 0.0682 nM.

On to B11, for which the Kd worked out at 0.144 nM.

For B12, the affinity, expressed as Kd, was 0.0578 nM.

Molecule B13 returned a Kd of 0.111 nM.

Take B14: the Kd was 0.066 nM.

Molecule B15 displayed a Kd of 0.0613 nM.

As to B16, binding was put at a Kd of 0.107 nM.

The molecule B17 gave a Kd of 0.0906 nM.
